Reference: article PMC12647727

Target: FcRn β2-microglobulin complex (UniProt P55899)
Experiment: BLI

Chain of UniProt P55899 (P55899 24-365, chain 1 of 2): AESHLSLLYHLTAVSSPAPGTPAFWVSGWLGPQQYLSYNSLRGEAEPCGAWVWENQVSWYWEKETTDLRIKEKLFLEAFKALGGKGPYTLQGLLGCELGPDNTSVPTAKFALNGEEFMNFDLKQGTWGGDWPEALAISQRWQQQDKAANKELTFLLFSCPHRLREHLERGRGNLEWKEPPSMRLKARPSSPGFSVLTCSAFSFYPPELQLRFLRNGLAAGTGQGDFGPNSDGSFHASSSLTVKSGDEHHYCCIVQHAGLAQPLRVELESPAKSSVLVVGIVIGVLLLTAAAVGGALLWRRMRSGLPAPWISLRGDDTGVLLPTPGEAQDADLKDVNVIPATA
Chain of UniProt P55899 (P61769 21-119, chain 2 of 2, further chain): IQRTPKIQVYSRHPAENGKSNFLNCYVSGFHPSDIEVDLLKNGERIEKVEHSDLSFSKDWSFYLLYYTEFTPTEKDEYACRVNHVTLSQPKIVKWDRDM

Substance: single-chain IgG atezolizumab (scAtezo) (antibody)
- Kd: 6.2 nM
